From publication PMC4333418, “Transcriptional regulator-mediated activation of adaptation genes triggers CRISPR de novo spacer acquisition”

Legend:
[1] = target: T1, Csa3a (Sulfolobus islandicus REY15A) (UniProt F0NH46); assay: EMSA; conditions: EMSA: 20 mM Tris-HCl pH 8.0, 50 mM KCl, 5% glycerol, 1 mM EDTA, 1 mM DTT, 5 ng/ul poly(dI-dC), 10 pmol probe in 20 ul, 40 C 20 min; footprinting: 10 mM …
T1 sequence: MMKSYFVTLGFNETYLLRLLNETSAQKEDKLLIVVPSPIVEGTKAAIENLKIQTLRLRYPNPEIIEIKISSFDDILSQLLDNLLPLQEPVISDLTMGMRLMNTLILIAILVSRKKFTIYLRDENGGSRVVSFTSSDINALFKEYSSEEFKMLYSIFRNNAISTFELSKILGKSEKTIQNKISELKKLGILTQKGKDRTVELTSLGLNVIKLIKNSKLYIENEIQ

Csa3a [2] = target: T2, Csa3a (Sulfolobus islandicus REY15A, UniProt F0NH46 1-224); assay: EMSA; Csa3a 1.6 pmol/ul; EMSA: 20 mM Tris-HCl pH 8.0, 50 mM KCl, 5% glycerol, 1 mM EDTA, 1 mM DTT, 5 ng/ul poly(dI-dC), 10 pmol probe in 20 ul, 40 C 20 min; footprinting: 10 mM Tris-HCl pH 7.4, 10 mM MgCl2, 1 mM CaCl2, 0.4 mM DTT, 100 mM KCl, 5% glycerol, 40 C 20 min; conditions: protein: recombinant; chain copies: 2; label: 5' biotin (one strand); blunt
T2 sequence: T1 sequence

Csa3a [3] = target: T2, Csa3a; assay: EMSA; Csa3a 0.4-1.6 pmol/ul; EMSA: 20 mM Tris-HCl pH 8.0, 50 mM KCl, 5% glycerol, 1 mM EDTA, 1 mM DTT, 5 ng/ul poly(dI-dC), 10 pmol probe in 20 ul, 40 C 20 min; footprinting: 10 mM Tris-HCl pH 7.4, 10 mM MgCl2, 1 mM CaCl2, 0.4 mM DTT, 100 mM KCl, 5% glycerol, 40 C 20 min; conditions: protein: recombinant; chain copies: 2; label: 5' biotin
Csa3a [4] = target: T2, Csa3a; assay: EMSA; Csa3a 2.4-6 pmol/ul; EMSA: 20 mM Tris-HCl pH 8.0, 50 mM KCl, 5% glycerol, 1 mM EDTA, 1 mM DTT, 5 ng/ul poly(dI-dC), 10 pmol probe in 20 ul, 40 C 20 min; footprinting: 10 mM Tris-HCl pH 7.4, 10 mM MgCl2, 1 mM CaCl2, 0.4 mM DTT, 100 mM KCl, 5% glycerol, 40 C 20 min; conditions: protein: recombinant; chain copies: 2; label: 5' biotin (one strand); blunt

Molecule: GCAAAAAGAATCTAAAATACACAATAATGATCCTTGTAAATTTCTTCCCGACTTTAGTAAGGATAATCTTAATAAACGACGATTTTCCTCTTGATGAAGAATAATGGAAAATATAGGGAAAGTGTTCTCCCGTATACGATCCTTGTTTTCCTTTTTCCTTGTTTCGTTTTGGGTTAGGTTGTTATCCTAAATTCATTATCTT (double strand) [csa1 promoter P1 (-205 to -4)]
- binding [1]: binds

Molecule: TATATTTTCCATTATTCTTCATCAAGAGGAAAATCGTCGTTTATTAAGATTATCCTTACTAAAGTCGGGAAGAAATTTACAAGGATCATTATTGTGTATTTTAGATTCTTTTTGC (double strand) [csa1 promoter P2 (-118 to -4)]
- binding [1]: binds

B1: csa1 promoter P3 (-42 to -4) (dsDNA)
DNA 1: TTACAAGGATCATTATTGTGTATTTTAGATTCTTTTTGC
DNA 2: GCAAAAAGAATCTAAAATACACAATAATGATCCTTGTAA
- binding result (Csa3a [2]): no binding

B2: csa1 25-bp minimal region (dsDNA)
DNA 1: ATCCTTACTAAAGTCGGGAAGAAATT
DNA 2: AATTTCTTCCCGACTTTAGTAAGGAT
- binding result (Csa3a [3]): binds

B3: cas1 P2 (-35 to -10) (dsDNA)
DNA 1: TTAAGACCTTAATAATATCGGAATAT
DNA 2: ATATTCCGATATTATTAAGGTCTTAA
- binding result (Csa3a [4]): no binding
